Series [1] is described as follows: Titration assay with vinyl acid esters. The format is biochemical. The following applies: 10 mM, 37° C., pH 7.0. How it is done:
Enzyme activities on the substrates triacetin, tripropionin, tributyrin, tricaprylene, trilaurin and vinyl-substrates (vinyl-acetate, ˜propionate, ˜butyrate, ˜caproate, ˜caprylate and ˜laurate) were determined using a standard titration assay with minor modifications. Tests were performed with a Methrom 718 STAT potentiometric titrator (Herisau, Switzerland) and by using 10 mM NaOH for titration. The substrates at 10 mM concentration were emulsified in 20 ml reaction buffer containing 2 mM Tris/HCl pH 7.0. After addition of 7.5 μg of the purified enzyme the NaOH consumption was recorded at a reaction temperature of 37° C. One unit was defined as the amount of enzyme that released […] of fatty acid per min.

Series [2] is described as follows: Enzyme activity fingerprinting with substrate cocktails. It counts as biochemical. The following applies: substrate 7-(3-octylcarboxy-(3-hydroxy-3-methyl-butyloxy))-coumarine; fingerprint analysis, 15 μM, 30 min. The procedure: The enzyme activity fingerprinting used 10 substrates and was carried out as described previously. The assay conditions were 75% PBS buffer at pH 7.4, 25% DMSO and 0.0025% SDS. Each substrate was present in the cocktail at 15 μM, the total concentration of the substrate cocktail was 150 μM. EstA3 was added at a concentration of 0.75 mg/L and EstCE1 at 0.2075 mg/L. The reaction time was 30 min. The chemical background was measured by recording the products observed under the same assay conditions after a 5 day incubation in the absence of the enzyme. The blank value was taken from the reaction after 30 min incubation in the absence of the enzyme.

Setting [3] is: substrate vinyl laurinate (C12).
Setting [4] is: substrate vinyl propionate (C3).

B1: EstCE1: recombinant enzyme having carboxyl esterase activity, amino acid sequence SEQ ID NO: 4, family VIII of bacterial lipolytic enzymes (protein)
chain: MSIADQSLAKRVQGVSQQAIDEGRIVGSVVLIARHGRVIYANASGYADREQKKPMVRETQFRLSSVSKPYITLAAMRMIEQQKLGLDDTVSRWLPWFTPALADGVRPPIKIRHLLSHTAGLDYRLSQPAEGPYHRLGIKDGMELSSLTLEQNLRLLAQADLLAEPGSEFRYSLAIDVLGAVLEQVAGEPLPQVFNHWVAQPLGLRNTGFYTTDVDNLATAYHDTAAEPEPIRDGMLLTLPEGFGFEIELAPSRALDAQAYPSGGAGMVGDADDVLQLVETLRTGKEGILQPATAALMRQAHVGSHAETQGPGWGFGFGGAVLEDAQLAATPQHNGTLQWGGVYGHSWFYDPQAAISVVALTNTAFEGMSGRYPLQIRDAVYGTNEPTR
modifications: metagenomic sequence
As for B1, the specific activity in series [1] (substrate vinyl acetate (C2)) is given as 13.3 U/mg; in series [1] (substrate vinyl butyrate (C4)), 16.0 U/mg; in series [1] (substrate vinyl caproate (C6)) it was 0 U/mg; in series [1] (substrate vinyl caprylate (C8)) it was 0 U/mg; in series [1] (setting [3]), 0 U/mg; in series [1] (setting [4]) it was 13.3 U/mg.

B2: EstA3: recombinant enzyme having carboxyl esterase activity, amino acid sequence SEQ ID NO: 2, family VIII of bacterial lipolytic enzymes (protein)
chain: MSAEELGFLPDRLARISDHIQTNYLDNGKLPFASLLIGRGDDIALQWSSGVADDAIFRIASMTKPVTSVAFMQLVEQGKVALTDPVAKYIPEFAKLGVFVAGGGNIPFVSRPPTMPMRIVDVLRHTTGFTYSFQERSNIDAAYRKTDVESWTRSTSQSFIDTLAEIPLEFDPGTQWNYSVSTDVLGILIERISGQSLPDYFRDHIFAPLGMVDTCFTVPADKAARIPQCFAFDPATKMKLFDEAGASSLWTKGWSFNSGGGGLASSVADYHRFCRMLLNGGALDGIQIISPKTLELMTANHLPGGQDLTQMSKSLFSEAEMAGIGFGLGFATTIDSVATLTPCSTGDFYWGGMYSTAFFVDPVEDIIMIFMTQLMPSSTYPVRREIKTMIYSALAA
modifications: metagenomic sequence
Consider B2, for which the specific activity came out at 107.5 U/mg in series [1] (substrate vinyl acetate (C2)); 387.5 U/mg in series [1] (substrate vinyl butyrate (C4)); 237.5 U/mg in series [1] (substrate vinyl caproate (C6)); 155.0 U/mg in series [1] (substrate vinyl caprylate (C8)); 7.5 U/mg in series [1] (setting [3]); 380.0 U/mg in series [1] (setting [4]). Also, in series [2], the “conversion of secondary ester, in words” value is on record as “able to convert”.

These data come from patent publication US8956838B2, “Carboxyl esterase polypeptides” (B.R.A.I.N., priority 2006, dated 2015).
